Measured values as given in the supplement of paper PMC12338614.

B1: library; numbered along this chain (parent)
chain: MEVVDPQQLGMFTEGELMSVGMDTFIHRIDSTEVIYQPRRKRAKLIGKYLMGDLLGEGSYGKVKEVLDSETLCRRAVKILKKKKLRRIPNGEANVKKEIQLLRRLRHKNVIQLVDVLYNEEKQKMYMVMEYCVCGMQEMLDSVPEKRFPVCQAHGYFCQLIDGLEYLHSQGIVHKDIKPGNLLLTTGGTLKISDLGVAEALHPFAADDTCRTSQGSPAFQPPEIANGLDTFSGFKVDIWSAGVTLYNITTGLYPFEGDNIYKLFENIGKGSYAIPGDCGPPLSDLLKGMLEYEPAKRFSIRQIRQHSWFRKKHPPAEAPVPIPPSPDTKDRWRSMTVVPYLEDLHGADEDEDLFDIEDDIIYTQDFTVPGQVPEEEASHNGQRRGLPKAVCMNGTEAAQLSTKSRAEGRAPNPARKACSASSKIRRLSACKQQ

Variants of: B1
Assay: STK11 functional score (HeLa growth suppression), rescaled enrichment; synonymous median = 1, nonsense median = 0 (normalised score)
Conditions: with HeLa; variant type: missense
Experimental: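 Deep mutational scan (TileSeq/POPCode codon randomisation) of full-length codon-optimised STK11 cDNA integrated at a Bxb1 landing pad (AAVS1) in HeLa cells. Restoring functional STK11 suppresses HeLa proliferation. Variant frequencies were measured by NGS before and after about two weeks of growth. The error-corrected enrichment log-ratio was rescaled so that synonymous median = 1 and nonsense median = 0, scores above 1 were compressed, and codon-level and three biological replicate scores were combined; error is the bootstrapped standard error. Scale: synonymous median = 1, nonsense median = 0; below 0.5 = damaging.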

STK11 functional score: each site, then its substitutions
R86: T 1.69; E 1.6; A 1.26; I 1.24; D 1.68; M -0.183; V 1.4; G 1.3; P 1.3; L 0.854; W 0.178
I88: R 1.65; S 1.16; T 1.48; D 1.58; Q -0.36; M 0.899; W 0.401; F 0.793; Y 1.67; E 1.53; L 1.24; G 0.665; V 0.87; C 1.07
T71: A 1.48; L 0.974; D 1.46; S 0.618; Q 1.58; N 0.961; E 1.37; P 0.376; M 0.604; C 1.33; I 1.11; F 1.17; V 1.04; W 1.13; R 0.849; G 1.48
K81: Q 0.882; I 1.19; A 1.66; T 1.35; R 1.21; P 0.992; H 1.25; S 0.932; F 0.987; V 0.987; G 1.04; Y 1.29; D 1.28; N 1.37; W 0.565; L 1.1
L80: V 0.484; E 1.41; Y 1.13; R 0.408; G 0.429; W 1.47; A 1.21; Q 1.45; I 0.964; N 0.951; M 0.45; H 0.878; S 0.479
L67: Y 0.0744; W 0.675; T 0.53; D 0.672; G 0.725; A 0.924; P 0.0421; H 0.361; V 0.884; R 0.719
D68: V 0.366; Q 0.949; Y -0.0799; P 1.08; A 0.846; W 0.944; G 1.08; N 1.31; L 0.441; S 1.29; R 1.07
A76: W -0.171; C 1.32; H 0.362; L -0.332; I 1.4; S 1.12; G 1.09; M -0.216; Q 0.447; F 0.0284; Y 0.13; V 1.06; R -0.417
I79: E 0.0444; L 0.451; W -0.0803; S 0.761; Y -0.0325; F 0.321; M 0.465; V 0.313; P 0.0986; R 0.967; Q 1.51; C 0.264; H -0.113; G 0.345
P89: N 1.67; S 0.816; D 0.0497; C 1.29; I 1.41; A 1.1; T 0.786; E 1.68; Y 0.644; H 1.3; W 1.08; R 0.754; M 1.55; Q 1.4; L 0.532; V 0.683; G 0.213
R74: C 1.11; A 0.0507; I 1.15; S 0.519; T -0.214; P 1.27; F 0.896; K 1.11; V 0.653; L 1.42; H 1.6
K78: N 0.219; V -0.0951; C 0.21; T 0.086; A -0.0486; H -0.114; P -0.226; W -0.148; G 0.0293; S -0.111; I -0.0791; Q 1.1; D -0.161; Y -0.374; F 0.0316; L 0.107
E92: C 1.68; A 1.31; F 1.56; M -0.344; N 1.39; I -0.0755; L 1.01
E70: L 1.03; A 1.43; R 1.67; I 1.54; G 0.582; Q 0.703; V 1.28; D 1.05; P -0.12; Y 1.14; S 0.896; C 1.39
K84: V 0.24; S 1.71; C 1.68; T 0.646; E 0.845; G 1.47; N 0.967; L 1.64; W 1.14; P 1.52
G91: N 1.38; L 1.54; F 0.906; Q 1.1; C 0.164; R 1.03; I 1.63; A 0.99; P 1.62; K 0.301; H 0.418; S 0.833; M 0.64; V 0.481
C73: W 0.426; P 0.227; Y 0.412; L 1.19; R 1.21; G 1; I 0.566; T 1.6; A 1.69; M 1.7; V 1.55; D 1.49; E 1.7; S 1.38; F 0.572
K83: L 0.484; T 0.156; I 1.29; C 1.39; E 1.48; N 1.3; S 1.7; P 1.64; Y 1.15; Q 0.343; A 1.58; V 1.05; W 1.53
R87: K 0.613; L 1.18; S 0.989; A 0.186; G 1.11; V 1.08; T 1.48; P 1.24; Y 1.6; I 1.45
N90: W 0.707; A 1.14; L 1; R 1.01; S 1.21; I 0.781; P 1.08; G 1.63; V 1.17; K -0.0122; D 1.23; T 0.558
S69: K 1.31; G 1.69; H 0.304; A 1.14; W 0.118; M 0.689; R 1.1; P 1.04; V 0.644; L 1.24; E 1.23; Q 0.0756
L85: G 0.21; P 1.41; C 1.1; T -0.0975; S 1.29; I 1.56; A 1.62; E 1.7; Y 0.234; W 1.16; V 1.15
R75: K 1.51; S 0.619; F 1.08; A 1.68; M 0.00187; V 1.27; W 0.21; T 0.85; D 1.68; C 1.55; Y 1.5; I 1.18; L 0.841; N -0.061; G 1.56
L72: M 0.649; Q 1.26; V 1.16; N 0.264; K 1.08; R 0.386; A 0.81; Y 1.04; T 1.44; S 0.585; I 1.19; H 0.0684; G 1.44; W 1.08; D 1.51
V77: W 0.824; R 0.469; T 1.57; I 1.4; G 0.0665; D 0.0184; P 0.512; Q 0.597; S 0.46; L 1.04
K82: S 1.15; P 1.69; D 1.17; L 1.49; F 0.966; C 1.23; G 1.23; R 1.66; A 1.43; V 0.966; E 1.36; I 1.3; W 1.33; Q 1.7; H 1.08; T 1.56
